Experimental data: US20250282876A1, “STABLE Fc FRAGMENTS, CONJUGATES, COMPOSITIONS, AND METHODS OF USE” (PURDUE RESEARCH FOUNDATION, priority 2022, published 2025)

How the values were obtained:
CD32b = molecular target: T1, CD32b (Homo sapiens, UniProt P31994); test: Bio Layer Interferometry (Octet) binding of monomeric Fc variants to FcγR; conditions: huFcγR variant CD32b; 1:1 Langmuir fit; * denotes weak binding/inaccurate KD
T1 construct: purchased Beijing Sino Biological Inc
T1 sequence (P31994 43-310): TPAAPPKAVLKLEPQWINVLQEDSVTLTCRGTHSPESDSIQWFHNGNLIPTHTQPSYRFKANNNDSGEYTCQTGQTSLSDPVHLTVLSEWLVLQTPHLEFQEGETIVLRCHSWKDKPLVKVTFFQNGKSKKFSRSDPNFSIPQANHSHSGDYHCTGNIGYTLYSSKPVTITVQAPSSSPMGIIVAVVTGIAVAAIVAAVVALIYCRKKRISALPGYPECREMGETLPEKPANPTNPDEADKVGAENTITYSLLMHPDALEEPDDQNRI

CD16a (176F) = molecular target: T2, CD16a (176F) (Homo sapiens, UniProt P08637); test: as above; conditions: huFcγR variant CD16a(176F); 1:1 Langmuir fit; * denotes weak binding/inaccurate KD
T2 construct: purchased Beijing Sino Biological Inc

[1] = tested on: antibody-dependent cell-mediated cytotoxicity (ADCC); test: ADCC activity of mFc mutant (Example 1 statement); assay type: cell-based; conditions: compared to WT
[2] = tested on: antibody-dependent cellular phagocytosis (ADCP); test: ADCP activity of mFc mutant (Example 1 statement); assay type: cell-based; conditions: compared to WT
FcγRIIIa = FcγRIIIa (Homo sapiens, UniProt P08637); test: Binding affinity of mFc mutant compared with wild-type (Example 1 statement); conditions: comparative with wild-type (WT)
FcγRIIb = molecular target: T3, FcγRIIb (Homo sapiens, UniProt P31994); test: Binding of mFc mutant compared with wild-type (Example 1 statement); conditions: as compared to WT
T3 sequence (P31994 43-310): T1 sequence (P31994 43-310)

FcγRIIIa, sequence (P08637 17-254): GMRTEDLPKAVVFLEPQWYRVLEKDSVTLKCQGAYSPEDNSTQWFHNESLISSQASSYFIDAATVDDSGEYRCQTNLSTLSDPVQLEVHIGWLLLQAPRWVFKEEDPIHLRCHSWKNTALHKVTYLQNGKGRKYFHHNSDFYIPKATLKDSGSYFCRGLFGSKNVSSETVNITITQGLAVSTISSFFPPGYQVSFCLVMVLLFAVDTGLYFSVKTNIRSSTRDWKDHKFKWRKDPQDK
T2 sequence (P08637 17-254): as above

| Substance | Kd (CD32b) | Kd (CD16a (176F)) | ADCC activity [1] | ADCP activity [2] | binding affinity to FcγRIIIa (FcγRIIIa) | binding to inhibitory FcγRIIb (FcγRIIb) |
| --- | --- | --- | --- | --- | --- | --- |
| Mono-Fc WT: wild-type Fc region of human IgG1 (aa 216-447), expressed as about 26 kDa monomeric form [reference compound] | 3760 nM | < 0.001 nM |  |  |  |  |
| Mono-Fc DLE: modified Fc region of human IgG1 with DLE mutation (Ser239Asp/Ala330Leu/Ile332Glu) | 1.34 nM |  | enhanced | enhanced | increased FcγRIIIa affinity | low binding |
